According to patent publication US20090075291A1, “PEPTIDE-BASED REGULATION OF GAP JUNCTIONS” (The Research Foundation of State University of New York, priority 2006, published 2009):

Columns and labels:
Cx43CT [1] = molecular target: T1, Cx43CT (Rattus norvegicus, UniProt P08050); test: Surface Plasmon Resonance (SPR) binding of synthetic peptides to immobilised recombinant Cx43CT; settings: for SPR binding to Cx43CT (in words): Cx43CT bound to carboxymethyl dextran matrix
T1 construct: GST (N, cleaved yes); made in house; host or cells: E. coli BL-21
T1 sequence (P08050 255-382): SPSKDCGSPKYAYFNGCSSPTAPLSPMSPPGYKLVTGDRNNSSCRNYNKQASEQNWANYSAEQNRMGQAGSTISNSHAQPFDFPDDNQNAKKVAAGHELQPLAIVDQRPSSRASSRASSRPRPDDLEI
Excerpt: Recombinant Cx43CT was produced as described in Duffy et al., “pH-Dependent Intramolecular Binding and Structure Involving Cx43 Cytoplasmic Domains,” J. Biol. Chem. 277(39):36706-36714 (2002), which is hereby incorporated by reference in its entirety. Briefly, cDNA derived from rat Cx43 was inserted into pGEX-6P-2 (Amersham) and expressed in E. coli (BL-21). The resultant GST-fusion protein was cleaved from the GST PreScission Protease® (Amersham Biosciences). The recombinant product after cleavage contained the sequence 255-382 of rCx43 preceded by four additional amino acids (GPLG). Protein concentration was measured using the Bio-Rad DC Protein Assay. Protein purity was assessed by SDS-PAGE.
Recombinant Cx43CT was covalently bound to a carboxylmethyl dextran matrix (Salamon et al., “Surface Plasmon Resonance Spectroscopy as a Tool for Investigating the Biochemical and Biophysical Properties of Membrane Protein Systems. II: Applications to Biological Systems,” Biochim. Biophys. Acta 1331(2):131-152 (1997), which is hereby incorporated by reference in its entirety). Specific peptides were presented and, when feasible, dissociation constants (KD) were calculated from the time course of binding and unbinding of the ligand, using a 1:1 (Langmuir) association and dissociation kinetic model (Biacore software package). In both phases (association and dissociation), the first 5-8 seconds of recording were not included in the fit, to avoid artifacts resulting from peptide distribution within the flow cells (Lang et al., “Surface Plasmon Resonance as a Method to Study the Kinetics and Amplitude of Protein-protein Binding,” in PRACTICAL METHODS IN CARDIOVASCULAR RESEARCH 936-947 (Stefan Dhein, Friedrich Wilhelm Mohr & Mario Delmar eds., 2005), which is hereby incorporated by reference in its entirety).
Phage display allows for the rapid screening of thousands of peptides, but the characteristics of binding cannot be properly defined. Furthermore, the peptides are part of a capsid protein, which may affect the ability of the peptide to properly interact with the target protein. Therefore, some of the peptides identified by the phage screening were selected to, using SPR, further characterize their ability to bind Cx43CT. Recombinant Cx43CT was covalently bound to a carboxymethyl dextran matrix and synthetic peptides presented for binding. A total of six 12-mer peptides from the non-biased screening (peptides labeled RXP1 to RXP6 in Table 1) and 5 peptides from the biased screening (labeled RXP-A to RXP-E in Table 3) were tested. […] Peptide RXP4 (SEQ ID NO:15) caused the largest deflection in SPR signal. RXP4 (250 μM) was added at time “zero.” Washout was initiated after two minutes of exposure. […] Higher concentrations of the peptide were tested but an asymptotic maximum response could not be detected. In addition, dissociation rates were too fast to reliably use them to calculate the kinetics of binding.
A different result emerged from the testing of the doublets. […] The transitions were well-fit by exponential functions and the rates of association and dissociation were used as described in Example 4 to estimate the kinetic parameters. A full range of concentrations was tested in three separate occasions and at two different pHs of the solvent (6.5 and 7.4). […] Adhes. 8(4-6):219-223 (2001), which is hereby incorporated by reference in its entirety), and that measured for the binding of Aquaporin-0 to Cx45.6 (Yin et al., “The Development-associated Cleavage of Lens Connexin 45.6 by Caspase-3-like Protease is Regulated by Casein Kinase II-mediated Phosphorylation,” J. Biol. Chem. 276(37):34567-34572 (2001), which is hereby incorporated by reference in its entirety).
The peptides were tested for binding to the carboxyl terminal domain of Cx43 using Surface Plasmon Resonance (“SPR”). […]

Cx43CT [2] = molecular target: T1, Cx43CT; test: Biased (XXXXRXPXXXX) phage display screening against Cx43CT; format: binding; settings: for Total Frequency (%): all three runs, 402 inserts sequenced; for Frequency Run 2(%) / Frequency Run 1 (%): binding step at pH 6.5; for Frequency Run 2(%): 119 inserts sequenced; for Frequency Run 1 (%): 120 inserts sequenced; for Frequency Run 3 (%): binding step at pH 7.4, 163 inserts sequenced
Procedure: A “library” of bacteriophage, displaying ˜[…] of 2.7×10^9 random 12-mer peptides (Ph.D.-12™ Phage display peptide library kit; New England BioLabs Inc.) was utilized. Wells in 24-well plates were coated with 15 μg of recombinant CT and blocked with 5 mg/ml BSA. After removing the unbound viruses by washing with Tris buffered saline containing 0.5% tween-20 (TBS-T), low affinity binders were eluted with a solution of TBS-containing Cx43CT at a concentration of 100 μg/ml. High affinity binders were recovered by overlaying the well with a culture of E. coli, to allow the tightly bound phage to infect the bacteria. This culture was amplified and the virus was precipitated with PEG. The amplified product was used for the subsequent round of panning. All steps were conducted at pH 6.5 unless otherwise indicated.
After three rounds of selection and amplification, the phage recovered from the last round of binding were grown on a lawn of E. coli for plaque purification. Each plaque, representing a single clone, was picked and amplified. The phage were isolated and analyzed by DNA sequencing.
The Ph.D. Peptide Display Cloning System (New England BioLabs Inc.) was used to create a biased phage display library of sequence XXXXRXPXXXX, where X is any amino acid flanking an arginine and a proline with an additional random residue at the center. The randomized peptides were followed by a Gly-Gly-Gly-Ser (SEQ ID NO:2) spacer. The library was cloned into M13 phage. These phage were analyzed for titer and sequence prior to screening for Cx43CT binding as described above.
The RXP motif was not detected in phage that bound to streptavidin. The motif occurred in different positions within the 12-mer peptide, thus preventing proper alignments to determine the frequency of other amino acids at specific positions relative to the RXP. To overcome this limitation and to search for peptides with higher binding affinity (see Example 10), a biased phage display library was generated where the RXP motif was forced to the center of the sequence, flanked at each side by 4 randomized amino acids. Sixty clones containing an insert (out of an estimated 3-4×10^4 total clones in the library) were chosen at random for sequencing prior to exposure of the library to Cx43CT. All inserts coded for an 11-mer peptide with the RXP motif in the appropriate location. In three independent runs, the same library was presented to Cx43CT. The binding step was carried out at pH 6.5 in two of the runs (run 1 and 2) and at pH 7.4 in one additional run (run 3). The total number of phage plaques containing a full coding insert that were recovered after the binding step were 120, 119 and 163 for runs 1, 2 and 3, respectively. […] These inserts may be consequent to incomplete restriction enzyme digestion as well as possible residual activity of the Klenow polymerase used in second strand production. The combination of these two factors would result in blunt ends that subsequently ligated. […] Furthermore, five specific peptides were recovered from all three runs and represented a large fraction of the repeats observed within the same run (see Table 2).

Cx43CT [3] = molecular target: T1, Cx43CT; test: NMR 15N-HSQC resonance shifts of 15N-Cx43CT in presence of peptide; format: binding; settings: PBS pH 5.8, peptide to Cx43CT about 2.4 mM to 0.8 mM (3:1)
Procedure: All NMR data were acquired on a Varian INOVA 600-MHz NMR spectrometer using a cryoprobe (MacUra & Ernst, “Elucidation of Cross Relaxation in Liquids by Two-dimensional NMR Spectroscopy,” Mol. Phys. 41:95-117 (1980), which is hereby incorporated by reference in its entirety); the sample temperature was maintained at 7° C. Gradient-enhanced two-dimensional ^1H-^15N HSQC experiments (Kay et al., “Pure Absorption Gradient Enhanced Heteronuclear Single Quantum Correlation Spectroscopy with Improved Sensitivity,” J. Am. Chem. Soc. 114:10663-10665 (1992), which is hereby incorporated by reference in its entirety) were used to observe all backbone amide resonances in ^15N-labeled Cx43CT. Data were acquired with 1024 complex points in t2 and 128 complex points in t1. Sweep widths were 10,000 Hz in the proton dimension and 2,500 Hz in the nitrogen dimension. The concentration of RXP peptide to Cx43CT was approximately 2.4 mM to 0.8 mM, respectively (3:1 ratio). All NMR data were processed using NMRPipe (Delaglio et al., “NMRPipe: A Multidimensional Spectral Processing System Based on UNIX Pipes,” J. Biomol. NMR 6(3):277-293 (1995), which is hereby incorporated by reference in its entirety) and analyzed using NMRView (Sorgen, “How to Solve a Protein Structure by Nuclear Magnetic Resonance The Connexin43 Carboxyl Terminal Domain,” in PRACTICAL METHODS IN CARDIOVASCULAR RESEARCH 948-958 (Stefan Dhein, Friedrich Wilhelm Mohr & Mario Delmar eds., 2005), which is hereby incorporated by reference in its entirety).
Peptides RXP1, RXP4 and RXP-E were tested for their ability to modify the structure of Cx43CT. The peptides were diluted in PBS (pH 5.8) containing ^15N-Cx43CT, and ^15N-HSQC spectra were acquired. Results for RXP4 and RXP-E are shown in FIGS. 4A (RXP4) and 4B (RXP-E). The specific resonance peaks that correspond to each amino acid in the Cx43CT sequence have been assigned (Sorgen et al., “Sequence-specific Resonance Assignment of the Carboxyl Terminal Domain of Connexin43,” J. Biomol. NMR 23(3):245-246 (2002), which is hereby incorporated by reference in its entirety). […]

AcRRKP-NH2 (Ac-RRKP-NH2) [Peptide 2504]
Response (SPR amplitude) (Cx43CT [1]; peptide concentration 1.0 mM): 46.5 arbitrary units

WEEPRRPFTMSGGGSAETHARVPFYSHSPMRHRLPGVHL (RXP-containing peptide) [RXP-D]
Total Frequency (%) (Cx43CT [2]): 6% | Frequency Run 2(%) (Cx43CT [2]): 0.8% | Frequency Run 1 (%) (Cx43CT [2]): 16.7% | Frequency Run 3 (%) (Cx43CT [2]): 1.8%

AcRRNP-NH2 (Ac-RRNP-NH2) [Peptide 2505]
Response (SPR amplitude) (Cx43CT [1]; peptide concentration 1.0 mM): 34.9 arbitrary units

AcRNP-NH2 (Ac-Arg-Asn-Pro-NH2) [Peptide 2502, small RXP peptide]
Response (SPR amplitude) (Cx43CT [1]; peptide concentration 1.0 mM): 4.6 arbitrary units

GIAAREPNSHDGGGSAHARVPFYSHSRDLWRKPAKSL (RXP-containing peptide)
Total Frequency (%) (Cx43CT [2]): 15.2% | Frequency Run 2(%) (Cx43CT [2]): 11.8% | Frequency Run 1 (%) (Cx43CT [2]): 12.5% | Frequency Run 3 (%) (Cx43CT [2]): 19.6%

DVPGRDPGYIKGGGSAHARVPFYSHSLNRNRKPSLYQ (RXP-containing peptide) [RXP-A]
Total Frequency (%) (Cx43CT [2]): 40% | Frequency Run 2(%) (Cx43CT [2]): 64.7% | Frequency Run 1 (%) (Cx43CT [2]): 20.8% | Frequency Run 3 (%) (Cx43CT [2]): 36.2%

AcRRKPRRKP-NH2 (Ac-RRKPRRKP-NH2) [Peptide 2503]
Response (SPR amplitude) (Cx43CT [1]; peptide concentration 25 μM): 27.5 arbitrary units | Response (SPR amplitude) (Cx43CT [1]; peptide concentration 100 μM): 80.6 arbitrary units | Response (SPR amplitude) (Cx43CT [1]; peptide concentration 250 μM): 147.0 arbitrary units | Response (SPR amplitude) (Cx43CT [1]; peptide concentration 500 μM): 214.8 arbitrary units | Response (SPR amplitude) (Cx43CT [1]; peptide concentration 1.0 mM): 294.7 arbitrary units

EIQPRSPLMFSGGGSAHARVPFYSHSAKEARWPRAHR (RXP-containing peptide) [RXP-B]
Total Frequency (%) (Cx43CT [2]): 8.2% | Frequency Run 2(%) (Cx43CT [2]): 2.5% | Frequency Run 1 (%) (Cx43CT [2]): 6.7% | Frequency Run 3 (%) (Cx43CT [2]): 13.5%

G H L H L R V P T L K M (GHLHLRVPTLKM; RXP-containing peptide) [RXP1]
SPR binding to Cx43CT (in words) (Cx43CT [1]): detectable, pH-dependent binding | SPR binding to Cx43CT (in words) (Cx43CT [1]; listed as RXP-1): very weak (almost undetectable) interaction | Shift of Cx43CT resonance peaks (15N-HSQC) (Cx43CT [3]): no resonance shifts were observed

AcRNPRNP-NH2 (Ac-RNPRNP-NH2) [Peptide 2501]
Response (SPR amplitude) (Cx43CT [1]; peptide concentration 500 μM): 14.4 arbitrary units | Response (SPR amplitude) (Cx43CT [1]; peptide concentration 1.0 mM): 24.8 arbitrary units

R R P P Y R V P R K L F (RRPPYRVPPKLF) [RXP4]
SPR binding to Cx43CT (in words) (Cx43CT [1]): too weak to allow for proper calculation of kinetic values | SPR binding to Cx43CT (in words) (Cx43CT [1]; listed as RXP-4): weak intermolecular binding | Shift of Cx43CT resonance peaks (15N-HSQC) (Cx43CT [3]): strongly affected the resonance peaks of residues R376, D378, and D379 | Shift of Cx43CT resonance peaks (15N-HSQC) (Cx43CT [3]; listed as RXP-4): caused a shift in the position of residues 376, 378 and 379, as well as residues 343-346
